# IntAct's records for PubMed 21212461
# B1: NAD-dependent protein deacetylase sirtuin-3, mitochondrial (Homo sapiens), Q9NTG7 (parent)
# chain: MAFWGWRAAAALRLWGRVVERVEAGGGVGPFQACGCRLVLGGRDDVSAGLRGSHGARGEPLDPARPLQRPPRPEVPRAFRRQPRAAAPSFFFSSIKGGRRSISFSVGASSVVGSGGSSDKGKLSLQDVAELIRARACQRVVVMVGAGISTPSGIPDFRSPGSGLYSNLQQYDLPYPEAIFELPFFFHNPKPFFTLAKELYPGNYKPNVTHYFLRLLHDKGLLLRLYTQNIDGLERVSGIPASKLVEAHGTFASATCTVCQRPFPGEDIRADVMADRVPRCPVCTGVVKPDIVFFGEPLPQRFLLHVVDFPMADLLLILGTSLEVEPFASLTEAVRSSVPRLLINRDLVGPLAWHPRSRDVAQLGDVVHGVESLVELLGWTEEMRDLVQRETGKLDGPDK
# Variants of: B1
# Details: with ppif_mouse Ppif
row,Variant,effect of a mutation on the interaction
1,H248Y,disrupting interaction
